Data as given in patent publication US20260193356A1.

B1: B20B02-N297A (antibody, human IgG1, V domains shown)
VH: QVQLQQSGGGVVQPGRSLRLSCAASGFTFSTYGMHWVRQAPGKGLEWVAALSFDGGNIYYGDSVKGRFTISRDNSKNTLYLQMNSLRAEDTALYYCAKARLPYSYDAVDYWGQGTLVTVSS
VL: EIVMTQSPATLSVSPGERATLSCRASQSVSSNLAWYQQKPGQAPRLLIYDTSTRAIGIPARFSGSGSGTEFTLTISSLQSEDFAIYYCHQYNFWPPITLGQGTRLEIK
B2: B21A06-N297A (antibody, human IgG1, V domains shown)
VH: QVQLQESGGDVVQPGRSLRLSCAASGFTFNNYGMHWVRQAPSKGLEWVAFIWYDGSNKYYGDSVKGRFTISRDNSKNTLYLQMNSLRAEDTALYYCARGDNWNSDAFDIWGPGTMVTVSS
VL: EIVMTQSPLSLPVTLGQPASISCRSSQSLVYTNGNTYLNWFQQRPGQSPRRLIYKVSSRDSGVPDRFSGSGSGTDFTLKISRVAAEDVGLYYCMQGTHWPLTFGGGTKVEIK
B3: B22E02-N297A (antibody, human IgG1, V domains shown)
VH: QVQLVQSGGGLVQPGRSLRLSCRASGFTFDGYSMNWVRQAPGKGLEWVGFIRSKGYGGTSESAASVKGRFTISRDDSKSIAYLQMNSLKTEDTAVYYCTRTRNWNDEGYFDYWGLGTLVTVSS
VL: DIQMTQSPSSLSASVGDRVTITCQASQDINKYLNWYQQKPGKAPKLLIYDASNSETGVPSRFSGSGSGTDFTFTISSLQPEDISTYYCQQYDILPITFGQGTRLEIK

What follows are binders tested against dog (Canis lupus) PDL1 (dPDL1) expressed on CHO-S cells (CHO-S-dPDL1) (dog (Canis lupus)) (assay: flow cytometry on CHO-S-dPDL1 cells; antibody 0.1 µg/mL).
Chain of dog (Canis lupus) PDL1 (dPDL1) expressed on CHO-S cells (CHO-S-dPDL1) (dog (Canis lupus)) (chain, as listed by the source limits assumed, form in doubt): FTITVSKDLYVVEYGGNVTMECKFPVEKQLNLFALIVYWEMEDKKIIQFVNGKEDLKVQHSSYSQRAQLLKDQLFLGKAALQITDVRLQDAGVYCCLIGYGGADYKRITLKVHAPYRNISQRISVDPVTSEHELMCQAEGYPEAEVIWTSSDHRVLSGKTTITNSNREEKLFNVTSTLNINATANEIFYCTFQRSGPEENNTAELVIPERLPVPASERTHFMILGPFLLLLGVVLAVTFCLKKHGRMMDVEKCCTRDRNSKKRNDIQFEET
With B1 the Percentage of Positive Cells (%) was 53.1%.
For B2, the Percentage of Positive Cells (%) was 50.5%.
B3 was tested, and the Percentage of Positive Cells (%) was 51%.

What follows are binders tested against dog (Canis lupus) PDL1 (dPDL1) expressed on CHO-S cells (CHO-S-dPDL1) (dog (Canis lupus)) (assay: flow cytometry on CHO-S-dPDL1 cells; antibody 1 µg/mL).
Work on B1 yielded a Percentage of Positive Cells (%) of 70.7%.
B2 was tested, and the Percentage of Positive Cells (%) was 62.5%.
Work on B3 yielded a Percentage of Positive Cells (%) of 67.8%.
